Laboratory results: PMC2892170 (Biochemistry, 2009)

Target: the molecule itself
Assay: SEC

B1: Enterococcus faecalis phosphopantothenoylcysteine synthetase (enzyme, UniProt A0ACD6TE34 1-257, looked up)
chain: MDVLVTAGGTSEPIDNVRSITNHSSGGLGKAIAESFLAAGHTVTYVTTKHALRPTQQLDLSIKEIETTVELATTLEQLFAEKQFDAIVHAMAVSDFTTEAAQTEEQFIDSFTQQLSEQTLPKTKEALATIVQNTLNQIADIPQTATKISSDTDRLLIFLKKNPKVIQMIRDKQPQTVLVGFKLLVDVSQEELVQVAQAALVKNRCDFVLANDLMNVHETEHEGLLINETGIVQEACSKQGIGSMIVKNVEKKWREQQ
In the case of B1, the “stoichiometry N” value is reported as 2.
